Data: patent US20230201322A1

What was measured:
Conditions in all cases: remark: other sources report otherwise
[1] = target: T1, HLA-A*0201 molecule expressed on the human tumoral cell T2 (human); test: T2 cell HLA-A2 FACS (BB7.2-PE), peptide titration
[2] = target: T1, HLA-A*0201 molecule expressed on the …; test: T2 cell HLA-A2 FACS (BB7.2-PE), peptide 1 µM
[3] = target: T1, HLA-A*0201 molecule expressed on the …; test: T2 cell HLA-A2 FACS (BB7.2-PE); ratio of 20% concentrations against HIV pol 589-597
[4] = target: T1, HLA-A*0201 molecule expressed on the …; test: T2 cell HLA-A2 FACS (BB7.2-PE), peptide 0.1 µM
[5] = target: T1, HLA-A*0201 molecule expressed on the …; test: T2 cell HLA-A2 FACS (BB7.2-PE), peptide 100 µM
[6] = target: T1, HLA-A*0201 molecule expressed on the …; test: T2 cell HLA-A2 FACS (BB7.2-PE), peptide 10 µM

VVLGVVFGI [reference human peptide derived from ERBB2, ERBB2-3H (…)]
Conc. inducing 20% of HLA-A2 expression [1]: 16.3 µM
HLA-A2 labelling as % of reference peptide HIV pol 589-597 at 100 µM [2]: -24%
Relative affinity [3]: 0.45
HLA-A2 labelling as % of reference peptide HIV pol 589-597 at 100 µM [4]: -12.6%
HLA-A2 labelling as % of reference peptide HIV pol 589-597 at 100 µM [5]: 196%
HLA-A2 labelling as % of reference peptide HIV pol 589-597 at 100 µM [6]: 11.9%

VLLGVVFGV [antigenic peptide ERBB2-3B2 (…)]
Conc. inducing 20% of HLA-A2 expression [1]: 6.9 µM
HLA-A2 labelling as % of reference peptide HIV pol 589-597 at 100 µM [2]: 1.51%
Relative affinity [3]: 0.19
HLA-A2 labelling as % of reference peptide HIV pol 589-597 at 100 µM [4]: -14.6%
HLA-A2 labelling as % of reference peptide HIV pol 589-597 at 100 µM [5]: 336%
HLA-A2 labelling as % of reference peptide HIV pol 589-597 at 100 µM [6]: 57%
